Laboratory results reported in article PMC10827179.

Tests used:
[1] = target: S. mutans CLC^F F-/H+ antiporter encoded by ORF 1289 (SMU.1289) (Streptococcus mutans UA159); experiment: cross-linking
[2] = target: S. mutans CLC^F homologue encoded by ORF 1290 (SMU.1290) (Streptococcus mutans UA159); experiment: cross-linking

Substance | stoichiometry N [1] | stoichiometry N [2]
S. mutans CLC^F F-/H+ antiporter encoded by ORF 1289 (SMU.1289) (natural protein) | 2 | 
S. mutans CLC^F homologue encoded by ORF 1290 (SMU.1290) (natural protein) |  | 2
